Test results as given in the supplement of paper PMC10567573.

B1: C8orf76 (parent)
chain: YCAKLCEPQWFYEETESSDDVEVL

Variants of: B1
Assay: protein stability index of a GFP-peptide fusion (GPS, HEK-293T) (PSI 1-6); higher = more stable
Details: c terminus: a fixed tail appended
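Note: lentivirally expressed fusions sorted by FACS into six bins by GFP to DsRed ratio, PSI derived from sequencing read proportions per bin multiplied by bin number.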

Protein stability index of substitutions, site by site:
C6: S 2.18, K 2.93, W 1.77, L 2.96, G 1.52, R 2.21, P 2.86, Q 3.02, Y 2.29, E 3.63, T 1.84, V 3.3, H 2.32, N 2.36, D 2.93, F 2.41, I 2.88, M 2.79, A 2.95
D19: T 2.19, E 2.35, C 1.4, M 1.58, F 2.1, Q 2.2, S 2.08, K 2.3, H 2.25, R 2, I 1.76, V 2.07, G 2.09, A 2.15, L 1.76, P 1.57, N 2.26, Y 1.76, W 1.41
E13: Y 1.55, S 2.51, V 1.57, F 2.16, A 2.11, L 2.12, M 2.13, I 2.1, R 1.64, W 1.8, P 1.92, H 1.91, Q 1.65, D 2.04, G 1.26, K 1.42, T 2.1, N 1.6
K4: R 2.54, P 2.43, Q 3.46, L 2.71, Y 3.2, W 2.08, S 2.01, M 2.48, V 3.05, T 2.94, N 4.3
F11: E 4.83, I 2.75, V 3.38, G 3.43, K 3.96, C 3.41, N 3.48, R 2.89, H 2.71, L 3.56, Y 1.88, D 4.38, M 3.28, S 3.54, P 3.44, Q 3.57, A 3.01, W 2.63, T 3.48
Y12: E 3.35, N 2.62, S 2.52, F 2.43, T 1.82, G 2.62, K 2.39, D 3.63, I 1.97, R 2.76, H 2.44, A 2.28, W 1.8, V 2.16, P 3.15, M 1.97, C 1.98, Q 2.23, L 2.14
P8: W 2.27, R 1.86, V 2.19, S 2.62, Q 2.55, L 1.67, G 2.56, H 2.12, N 2.69, I 1.58, A 2.09, M 2.32, Y 1.76, T 2.55, E 3.1, D 3.18, K 1.62, F 1.94, C 1.73
L5: H 2.72, D 3.42, M 2.97, E 2.94, V 2.4, W 1.28, I 1.98, K 2.05, N 3.31, A 2.62, Y 3.33, Q 2.63, G 2.99, R 2.44, S 2.04, T 2.78, C 3.03, P 2.15, F 2.29
S18: V 2.1, Y 2.29, D 2.6, L 2.23, G 2.39, C 2.13, M 2.34, N 2.33, P 2.3, T 2.11, K 2.28, Q 2.38, E 2.54, I 1.88, F 1.49, A 2.54, H 2.06, R 2
Q9: R 1.41, M 1.88, W 1.04, P 2.03, C 1.93, V 1.74, L 2.14, I 2.22, K 2.09, N 2.17, F 2.19, Y 2.66, H 2.13, G 2.15, D 3.86, A 2.46, E 3.13, S 2.4, T 2.29
D20: A 2.27, V 1.86, N 2.05, L 1.67, M 2.02, Y 1.76, T 2.18, K 2.01, P 1.81, E 1.92, I 1.74, F 2.04, H 1.91, C 2.49, W 1.79, G 1.37, Q 1.86, R 1.5, S 2.29
E14: S 2.15, G 2.11, L 2.29, Y 2.04, T 2.17, K 1.39, N 2.37, M 2.78, C 1.8, D 2.36, W 1.46, F 2.24, V 1.86, P 1.84, Q 1.72, I 1.23, A 2.14, H 2.1, R 1.8
E7: W 1.63, A 2.27, Q 3.27, V 2.3, L 2.83, T 2.5, H 2.57, I 2.32, D 3.69, F 2.33, M 2.49, C 2.69, K 2.78, S 2.82, Y 2.2, P 2.46, R 2.6, N 2.67, G 2.43
V21: F 2.12, M 2.19, D 2.53, A 2.3, W 2.04, N 2.35, K 2.99, R 2.27, Q 2.53, H 2.27, L 2.07, Y 2.48, G 2.56, C 2.41, P 2.38, T 3.28, S 2.46, I 2.39, E 2.43
E22: C 2.06, A 2.2
W10: F 3.22, P 3.92, Y 2.71, D 4.5, K 4.15, G 4.02, M 3.51, I 3.45, V 3.35, S 4.48, T 4.34, Q 4.45, C 3.87, L 3.04, N 4.07, E 3.98, R 4.74, A 4.04, H 3.52
T15: G 2.27, E 2.72, P 2.84, R 2.9, F 2.02, I 1.91, M 1.91, H 2.12, W 1.81, K 2.08, L 1.75, Q 2.43, C 2.16, N 2.08, D 2.9, V 2.17, Y 1.96, A 2.63, S 2.54
S17: F 1.87, Y 2.24, Q 2.35, W 2.74, V 2.25, R 2.25, N 2.4, M 2.14, K 2, G 3.01, H 1.87, P 2.34, L 1.98, D 3.15, A 2.38, T 2.42, E 2.85, C 1.68, I 1.83
E16: W 1.65, Y 2.59, I 2.14, D 2.41, H 3.15, M 2.31, N 1.89, F 2.19, V 1.53, P 1.65, R 1.77, L 3.46, K 2.28, T 2.22, A 2.25, S 1.74, Q 1.54, G 1.87, C 1.58
